One assay has as its target T1, Human IL-4R-Fc (human, UniProt P24394 26-232).
T1 construct: not shown: Fc part (captured via anti-human IgG-Fc)
The assay is described as follows: SPR (Biacore T200), human IL-4R-Fc captured, scFv as analyte 0.12 to 90 nM, 1:1 model. As for the experimental part:
Affinity of the 16 humanized scFvs (derived from 5 rabbit monoclonal antibodies) to human IL-4R was determined by SPR analysis on a T200 device (Biacore, GE Healthcare). Human IL-4R-Fc was captured via an anti-human IgG-Fc coupled to a carboxylmethylated dextran surface and the scFvs were injected as analyte. After each analyte injection cycle the sensor chip was regenerated and new antigen was captured. The scFvs were measured using a dose response multi-cycle kinetic assay with seven analyte concentrations ranging from 0.12 to 90 nM diluted in running buffer. Obtained sensorgrams were fitted using a 1:1 binding model.
The scFvs were measured using a dose response multi-cycle kinetic assay with seven analyte concentrations ranging from 0.12 to 90 nM diluted in running buffer. Obtained sensorgrams were fitted using a 1:1 binding model.
(In SPR one partner is held on a chip, and binding of the other changes the refractive index at the surface.)

For a further assay, the target named is T2, cynomolgus IL-4R-Fc (cynomolgus monkey (Macaca fascicularis), UniProt A0A2K5V580 33-239).
T2 construct: also called cynomolgus IL-4R (capture setup); not shown: Fc part
Put plainly: SPR, capture setup: cynomolgus IL-4R-Fc captured, scFv as analyte.

The target of assay [1] is T3, IL-4R on HEK-Blue cells (human, UniProt P24394 26-825). Put plainly: cell-based or functional assay.
In the next assay the target is T4, Biotinylated IL-4R (human, UniProt P24394 26-232, limits assumed, biotinylated).
T4 construct: also called human IL-4R; hIL-4R
The assay is described as follows: competitive ELISA: IL-4 coated, biotinylated IL-4R preincubated with scFv. An excerpt: Bound biotinylated IL-4R was then detected using streptavidin-HRP.

For assay [2], the target named is T5, recombinant cynomolgus monkey IL-4R (ECD with His-tag, Acro Biosystems) (cynomolgus monkey, UniProt A0A2K5V556 26-232).
T5 construct: analyte in the SPR of the Morrison-H antibodies; also called cynomolgus IL-4R
The assay is described as follows: SPR (Biacore T200), Morrison antibody captured via anti-human IgG-Fc, cynomolgus IL-4R ECD-His as analyte, 1:1 model. Here is the method:
(§1) In this SPR experiment, Morrison molecules were captured via an anti-human IgG-Fc antibody (Human Antibody Capture Kit; Biacore, Cytiva) covalently immobilized to a carboxylmethylated dextran surface (CM5 sensorchip; Biacore, Cytiva) and a titration series of human IL-4R ECD was injected as analyte. After each analyte injection cycle, the sensor chip was regenerated (MgCl₂), and new Morrison antibody was subsequently re-captured. […] The apparent dissociation (kd) and association (kₐ) rate constants and the apparent dissociation equilibrium constant (KD) were calculated with the Biacore analysis software (Biacore Evaluation software Version 3.2, Cytiva) using one-to-one Langmuir binding model and quality of the fits was monitored based on Chi2 and U-value, which are measures for the quality of the curve fitting. The binding level was calculated as the maximum stability binding achieved normalized to the theoretical Rmax. Cross-reactivity to cynomolgus monkey IL-4R was measured using the same setup as for the analysis of human IL-4R kinetics, with the difference that recombinant cynomolgus monkey IL-4R (ECD with His-tag, Acro Biosystems) protein was used as analyte instead of human IL-4R.

For assay [3], the target named is T3, IL-4R on HEK-Blue cells. Put plainly: cell-based or functional assay. This is another data set of the same source.
In assay [4] the target is T6, recombinant human IL-4R protein (ECD with His Tag, Sino Biological) (human, UniProt P24394 26-232).
T6 construct: extracellular domain; analyte in the SPR of the Morrison-H antibodies; also called human IL-4R ECD; not shown: His tag
Put plainly: SPR (Biacore T200), Morrison antibody captured via anti-human IgG-Fc, human IL-4R ECD-His as analyte 0.175 to 45 nM, 1:1 model. As for the experimental part: as §1

Assay [5] concerns the target T3, IL-4R on HEK-Blue cells. Put plainly: cell-based or functional assay. The source holds these as a separate data set.

The source of these data is US20250282880A1 (NUMAB THERAPEUTICS, published 2025).

B1: PRO1898 (scFv)
scFv: DIQMTQSPSSLSARVGDRVTITCQASEDIESYLAWYQQKPGKAPKLLIYRASTLAYGVPSRFSGSGSGRDFTLTISSLQPEDFATYYCLGSSYSTGSNIFGTGTKVTVLGGGGGSGGGGSGGGGSGGGGSEVQLVESGGGLVQPGGSLRLSCAASGFSSSSAHYMCWVRQAPGKGLEWIGCIYAGSRGSTYYASWAKGRFTISRDNSKNTVYLQMNSLRAEDTAVYYCARAAFVNRGVSWIWPYYFSLWGQGTLVTVSS
notes: optimized variant of PRO1517 (VL S14R, T87R, AHo numbering); scFv VL-linker-VH; also called 44-34-C10-sc08
One may read the Kd as the constant that tells how readily two partners part at equilibrium. As usually defined, the koff is the first-order rate constant of dissociation. For orientation: kon means the second-order rate constant of association. By IC50 is commonly meant the concentration that inhibits the measured activity by half. On to B1, for which, in the assay with Human IL-4R-Fc, binding was put at a Kd of 0.00791 nM, the dissociation rate constant (koff) was 1.7e-05 s⁻¹ and the kon is 2.15e+06 M⁻¹ s⁻¹. Further, in the assay with cynomolgus IL-4R-Fc, the Kd is 0.0908 nM, the koff is 0.000109 s⁻¹ and the kon worked out at 1.2e+06 M⁻¹ s⁻¹. In the assay with IL-4R on HEK-Blue cells [1], the “IC50, neutralization of hIL-4 induced signaling in reporter gene assay” value is 1 ng/mL; the “IC50, neutralization of hIL-13 induced signaling in reporter gene assay” value was determined as 1.15 ng/mL; the “rel. IC50 (IC50, dupilumab/IC50, test sample), hIL-4 induced signaling” value turned out to be 1.15 ratio; the “rel. IC50 (IC50, dupilumab/IC50, test sample), hIL-13 induced signaling” value stood at 0.87 ratio. In the assay with Biotinylated IL-4R, the IC50 is 3.41 ng/mL and the “rel. IC50 (IC50, dupilumab/IC50, test sample)” value came out at 1.95 ratio.

B2: PRO2198 (bispecific antibody, human IgG4 S228P, kappa)
light: DIQMTQSPSSLSARVGDRVTITCQASEDIESYLAWYQQKPGKAPKLLIYRASTLAYGVPSRFSGSGSGRDFTLTISSLQPEDFATYYCLGSSYSTGSNIFGQGTKVEIKRTVAAPSVFIFPPSDEQLKSGTASVVCLLNNFYPREAKVQWKVDNALQSGNSQESVTEQDSKDSTYSLSSTLTLSKADYEKHKVYACEVTHQGLSSPVTKSFNRGEC
heavy: not shown
notes: IgG4 (S228P) Morrison-H, IgG4-(scFv)2: Fab arms 44-34-C10-sc08 (anti-IL-4R), anti-IL-31 scFv 50-09-D07-sc04 fused to the C-terminus of the heavy chain; also called Morrison-H antibody PRO2198; anti-IL-4RxIL-31 bispecific antibody
Consider B2, for which, in assay [2], the Kd was 0.144 nM, the koff is 4.9e-05 s⁻¹ and the kon stood at 370000 M⁻¹ s⁻¹. In addition, in the assay with IL-4R on HEK-Blue cells [3], the “Mean IC50, neutralization of human IL-4-induced signaling in the stat-6 reporter gene assay” value was 0.0239 nM; the “Mean rel. IC50 [IC50 dupilumab/IC50 sample], human IL-4-induced signaling” value is 0.42 ratio; the “Retained IC50 with and without IL-31 excess (n = 1) [IC50, no IL-31/IC50, with IL-31]” value is 0.71 ratio. Moreover, in assay [4], the Kd amounted to 0.291 nM, the koff stood at 0.000101 s⁻¹ and the kon turned out to be 352000 M⁻¹ s⁻¹. In addition, in the assay with IL-4R on HEK-Blue cells [5], the “Mean IC50, neutralization of human IL-13 induced signaling in the stat-6 reporter gene assay” value was 0.0221 nM and the “Mean rel. IC50 [IC50 dupilumab/IC50 sample], human IL-13 induced signaling” value came out at 0.42 ratio.

B3: PRO2199 (bispecific antibody, human IgG4 S228P, kappa)
light: DIQMTQSPSSLSASVGDRVTITCQASEDIESYLAWYQQKPGKAPKLLIYRASTLAYGVPSRFSGSGSGTDFTLTISSLQPEDFATYYCLGSSYSTGSNIFGQGTKVEIKRTVAAPSVFIFPPSDEQLKSGTASVVCLLNNFYPREAKVQWKVDNALQSGNSQESVTEQDSKDSTYSLSSTLTLSKADYEKHKVYACEVTHQGLSSPVTKSFNRGEC
heavy: not shown
notes: IgG4 (S228P) Morrison-H, IgG4-(scFv)2: Fab arms 44-34-C10-sc09 (anti-IL-4R), anti-IL-31 scFv 50-09-D07-sc04 fused to the C-terminus of the heavy chain; also called Morrison-H antibody PRO2199; anti-IL-4RxIL-31 bispecific antibody
For B3, in assay [2], the Kd amounted to 0.0351 nM, the koff is 3.44e-05 s⁻¹ and the kon is 980000 M⁻¹ s⁻¹. In addition, in the assay with IL-4R on HEK-Blue cells [3], the “Mean IC50, neutralization of human IL-4-induced signaling in the stat-6 reporter gene assay” value was 0.0115 nM; the “Mean rel. IC50 [IC50 dupilumab/IC50 sample], human IL-4-induced signaling” value stood at 0.72 ratio; the “Retained IC50 with and without IL-31 excess (n = 1) [IC50, no IL-31/IC50, with IL-31]” value came out at 1.25 ratio. Further, in assay [4], the Kd was found to be 0.197 nM, the koff is 5.76e-05 s⁻¹ and the kon was 293000 M⁻¹ s⁻¹. Moreover, in the assay with IL-4R on HEK-Blue cells [5], the “Mean IC50, neutralization of human IL-13 induced signaling in the stat-6 reporter gene assay (single analysis)” value was found to be 0.0113 nM and the “Mean rel. IC50 [IC50 dupilumab/IC50 sample], human IL-13 induced signaling (single analysis)” value amounted to 0.69 ratio.
